Experimental findings from paper PMC9352551, “Energetic determinants of animal cell polarity regulator Par-3 interaction with the Par complex” (The Journal of Biological Chemistry, 2022) are described below.

Common to all, as to conditions: both partners purified
In assay [1] the target is T1, aPKC KD-PBM (Drosophila, UniProt A1Z9X0 259-606).
T1 construct: From pBH; also called his aPKC kinase domain-PBM; aPKC kinase domain–PBM; source: E. coli BL21 (DE3), his-purified (Ni-NTA) partially under denaturing conditions (8 M urea)
T1 sequence (looked up): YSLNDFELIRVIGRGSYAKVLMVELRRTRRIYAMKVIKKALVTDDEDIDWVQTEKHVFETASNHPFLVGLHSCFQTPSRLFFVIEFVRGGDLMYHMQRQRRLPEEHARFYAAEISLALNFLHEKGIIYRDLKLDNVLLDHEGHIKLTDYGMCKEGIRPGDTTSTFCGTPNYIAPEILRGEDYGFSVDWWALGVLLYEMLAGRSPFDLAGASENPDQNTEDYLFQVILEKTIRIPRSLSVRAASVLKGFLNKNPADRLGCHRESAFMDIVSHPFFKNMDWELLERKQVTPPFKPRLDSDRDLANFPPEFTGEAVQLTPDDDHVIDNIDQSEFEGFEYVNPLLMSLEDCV
Briefly: supernatant depletion assay; GST-fused protein on glutathione agarose resin (solid phase, 'ligand'); soluble protein ('receptor') left in the supernatant at equilibrium quantified on a Coomassie gel; 1 h at 20 °C; 10 mM Hepes pH 7.5, 100 mM NaCl, 1 mM DTT, 200 μM ATP, 5 mM MgCl2, 0.1% Tween-20; single-site equation; 'apparent' for Par-3 variants that could bind more than one Par complex; ATP replaced with ADP in one ….

The target of assay [2] is T2, Par complex (his-Par-6, aPKC) (Drosophila, UniProt O97111 1-351; A1Z9X0 1-606).
T2 construct: Par-6, Drosophila, residues 1-351; atypical protein kinase C (aPKC), Drosophila, residues 1-606; Construct as in PMID 32084408; also called full Par complex; source: HEK 293F, transfected (pCMV), purified (Ni-NTA or cobalt resin, Source Q anion exchange)
T2 sequence (looked up) 1: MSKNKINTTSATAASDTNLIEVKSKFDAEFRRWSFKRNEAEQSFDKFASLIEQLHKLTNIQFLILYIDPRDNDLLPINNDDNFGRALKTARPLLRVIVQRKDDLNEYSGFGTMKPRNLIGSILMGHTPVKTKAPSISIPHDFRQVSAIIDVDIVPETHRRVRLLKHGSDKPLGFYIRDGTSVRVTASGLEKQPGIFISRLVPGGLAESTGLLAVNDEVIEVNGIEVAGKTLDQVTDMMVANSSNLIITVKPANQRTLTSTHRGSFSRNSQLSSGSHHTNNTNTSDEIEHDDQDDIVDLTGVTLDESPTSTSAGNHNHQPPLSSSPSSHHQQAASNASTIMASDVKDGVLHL
T2 sequence (looked up) 2: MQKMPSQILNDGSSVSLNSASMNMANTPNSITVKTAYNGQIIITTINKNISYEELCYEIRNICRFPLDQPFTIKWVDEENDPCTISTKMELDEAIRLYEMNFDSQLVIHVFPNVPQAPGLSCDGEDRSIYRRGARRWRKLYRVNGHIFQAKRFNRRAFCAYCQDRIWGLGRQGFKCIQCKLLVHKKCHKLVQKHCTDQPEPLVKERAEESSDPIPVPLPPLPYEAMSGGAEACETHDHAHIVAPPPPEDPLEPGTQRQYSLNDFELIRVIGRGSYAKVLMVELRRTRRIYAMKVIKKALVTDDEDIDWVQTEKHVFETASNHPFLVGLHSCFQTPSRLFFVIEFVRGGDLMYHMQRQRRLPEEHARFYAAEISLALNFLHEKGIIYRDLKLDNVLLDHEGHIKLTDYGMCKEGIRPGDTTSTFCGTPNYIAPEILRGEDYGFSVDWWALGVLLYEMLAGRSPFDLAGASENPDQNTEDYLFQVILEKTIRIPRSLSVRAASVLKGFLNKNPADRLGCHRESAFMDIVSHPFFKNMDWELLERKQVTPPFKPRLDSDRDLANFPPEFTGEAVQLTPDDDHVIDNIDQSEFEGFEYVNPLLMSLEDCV
Described as above.

In assay [3] the target is T1, aPKC KD-PBM. Briefly: pull-down; competition: GST-Par-3 PDZ2 or PDZ3 on glutathione resin with aPKC KD-PBM and the other PDZ domain as soluble competitor; room temperature, 30 to 60 min; 10 mM Hepes pH 7.5, 100 mM NaCl, 1 mM DTT, 200 μM ATP, 5 mM MgCl2, 0.1% Tween-20; Coomassie gel.
For assay [4], the target named is T2, Par complex (his-Par-6, aPKC). As to the kind of experiment: supernatant depletion assay; MBP-Par-3 (C-terminal his-tag, his-purified) on amylose resin (solid phase); soluble protein left in the supernatant quantified on a Coomassie gel; 10 min at 20 °C; 10 mM Hepes pH 7.5, 100 mM NaCl, 1 mM DTT, 200 μM ATP, 5 mM MgCl2, 0.1% Tween-20; 'apparent'.

B1: GST-Par-3 PDZ3 (domain or fragment, Drosophila, UniProt O96782 616-741, looked up)
chain: HSREELTLHIPVHDTEKAGLGVSVKGKTCSNLNASGSSASSGSNGLMKHDGDLGIFVKNVIHGGAASRDGRLRMNDQLLSVNGVSLRGQNNAEAMETLRRAMVNTPGKHPGTITLLVGRKILRSAS
notes: Par-3 (Bazooka), Drosophila, residues 616-741; From pGEX; also called GST fused Par-3 PDZ3
Turning to B1, the binding result (with aPKC KD-PBM [1]; in assay [2]) was “binds” throughout.

B2: Par-3 PDZ3 (his-purified, soluble) (domain or fragment, Drosophila, UniProt O96782 616-741, looked up)
chain: HSREELTLHIPVHDTEKAGLGVSVKGKTCSNLNASGSSASSGSNGLMKHDGDLGIFVKNVIHGGAASRDGRLRMNDQLLSVNGVSLRGQNNAEAMETLRRAMVNTPGKHPGTITLLVGRKILRSAS
notes: Par-3 (Bazooka), Drosophila, residues 616-741; From pET19; source: E. coli BL21 (DE3), his-purified
Turning to B2, the binding result with aPKC KD-PBM [3] is listed as “binds”.

B3: GST-Par-3 PDZ1-3 (domain or fragment, Drosophila, UniProt O96782 309-741, looked up)
chain: DGEMLLIINEYGSPLGLTALPDKEHGGGLLVQHVEPGSRAERGQLRRDDRILEINGIKLIGLTESQVQEQLRRALESSELRVRVLRGDRNRRQQRDSKVADMVEVATVSPTRKPHAAPVGTSLQVANTRKLGRKIQIMLKKGPNGLGFSVTTRDNPAGAHCPIYIKNILPRGAAIEDGRLKPGDRLLEVDGTPMTGKTQTDVVAILRGMPAGATVRIVVSRQQELAEQADQPAEKSAGVAVAPSVAPPAVPAAAAPAPPIPVQKSSSARSLFTHQQQSQLNESQHFIDAGSESAASNDSLPPSSNSWHSREELTLHIPVHDTEKAGLGVSVKGKTCSNLNASGSSASSGSNGLMKHDGDLGIFVKNVIHGGAASRDGRLRMNDQLLSVNGVSLRGQNNAEAMETLRRAMVNTPGKHPGTITLLVGRKILRSAS
notes: Par-3 (Bazooka), Drosophila, residues 309-741; From pGEX; also called Par-3 fragment containing its three PDZ domains
Consider B3, for which the binding result in assay [2] is given as “binds”.

B4: GST-Par-3 PDZ1-2 (domain or fragment, Drosophila, UniProt O96782 309-533, looked up)
chain: DGEMLLIINEYGSPLGLTALPDKEHGGGLLVQHVEPGSRAERGQLRRDDRILEINGIKLIGLTESQVQEQLRRALESSELRVRVLRGDRNRRQQRDSKVADMVEVATVSPTRKPHAAPVGTSLQVANTRKLGRKIQIMLKKGPNGLGFSVTTRDNPAGAHCPIYIKNILPRGAAIEDGRLKPGDRLLEVDGTPMTGKTQTDVVAILRGMPAGATVRIVVSRQQEL
notes: Par-3 (Bazooka), Drosophila, residues 309-533; From pGEX
For B4, the binding result (with aPKC KD-PBM [1]; in assay [2]) was “binds” throughout.

B5: GST-Par-3 BR-PDZ2 (domain or fragment, Drosophila, UniProt O96782 426-533, looked up)
chain: PVGTSLQVANTRKLGRKIQIMLKKGPNGLGFSVTTRDNPAGAHCPIYIKNILPRGAAIEDGRLKPGDRLLEVDGTPMTGKTQTDVVAILRGMPAGATVRIVVSRQQEL
notes: Par-3 (Bazooka), Drosophila, residues 426-533 (basic region and PDZ2); From pGEX
Consider B5, for which the binding result (in the assay with aPKC KD-PBM [1]; in assay [2]) was “binds” in each case.

B6: GST-Par-3 PDZ2 (domain or fragment, Drosophila, UniProt O96782 444-533, looked up)
chain: QIMLKKGPNGLGFSVTTRDNPAGAHCPIYIKNILPRGAAIEDGRLKPGDRLLEVDGTPMTGKTQTDVVAILRGMPAGATVRIVVSRQQEL
notes: Par-3 (Bazooka), Drosophila, residues 444-533; From pGEX; also called GST fused Par-3 PDZ2
For B6, the binding result (in the assay with aPKC KD-PBM [1]; in assay [2]) was “binds” each time.

B7: Par-3 PDZ2 (his-purified, soluble) (domain or fragment, Drosophila, UniProt O96782 444-533, looked up)
chain: QIMLKKGPNGLGFSVTTRDNPAGAHCPIYIKNILPRGAAIEDGRLKPGDRLLEVDGTPMTGKTQTDVVAILRGMPAGATVRIVVSRQQEL
notes: Par-3 (Bazooka), Drosophila, residues 444-533; From pET19; also called soluble PDZ2; source: E. coli BL21 (DE3), his-purified
In the case of B7, in the assay with aPKC KD-PBM [3], the binding result is “binds”.

B8: MBP-Par-3 PDZ1-APMΔPDZ2 (domain or fragment, Drosophila, UniProt O96782 309-987, looked up)
chain: DGEMLLIINEYGSPLGLTALPDKEHGGGLLVQHVEPGSRAERGQLRRDDRILEINGIKLIGLTESQVQEQLRRALESSELRVRVLRGDRNRRQQRDSKVADMVEVATVSPTRKPHAAPVGTSLQVANTAEQADQPAEKSAGVAVAPSVAPPAVPAAAAPAPPIPVQKSSSARSLFTHQQQSQLNESQHFIDAGSESAASNDSLPPSSNSWHSREELTLHIPVHDTEKAGLGVSVKGKTCSNLNASGSSASSGSNGLMKHDGDLGIFVKNVIHGGAASRDGRLRMNDQLLSVNGVSLRGQNNAEAMETLRRAMVNTPGKHPGTITLLVGRKILRSASSSDILDHSNSHSHSHSNSSGGSNSNGSGNNNNSSSNASDNSGATVIYLSPEKREQRCNGGGGGGSAGNEMNRWSNPVLDRLTGGICSSNSAQPSSQQSHQQQPHPSQQQQQQRRLPAAPVCSSAALRNESYYMATNDNWSPAQMHLMTAHGNTALLIEDDAEPMSPTLPARPHDGQHCNTSSANPSQNLAVGNQGPPINTVPGTPSTSSNFDATYSSQLSLETNSGVEHFSRDALGRRSISEKHHA
notes: Par-3 (Bazooka), Drosophila, residues 309-987 with residues 437-533 deleted; From pMAL; construct as in PMID 32084408; not shown: MBP, N-terminal, kept; His tag, C-terminal, kept
With B8, the binding result in assay [4] is “binds”.

B9: GST-Par-3 BR-PDZ2-3 (domain or fragment, Drosophila, UniProt O96782 426-741, looked up)
chain: PVGTSLQVANTRKLGRKIQIMLKKGPNGLGFSVTTRDNPAGAHCPIYIKNILPRGAAIEDGRLKPGDRLLEVDGTPMTGKTQTDVVAILRGMPAGATVRIVVSRQQELAEQADQPAEKSAGVAVAPSVAPPAVPAAAAPAPPIPVQKSSSARSLFTHQQQSQLNESQHFIDAGSESAASNDSLPPSSNSWHSREELTLHIPVHDTEKAGLGVSVKGKTCSNLNASGSSASSGSNGLMKHDGDLGIFVKNVIHGGAASRDGRLRMNDQLLSVNGVSLRGQNNAEAMETLRRAMVNTPGKHPGTITLLVGRKILRSAS
notes: Par-3 (Bazooka), Drosophila, residues 426-741; From pGEX
With B9, the binding result (in the assay with aPKC KD-PBM [1]; in assay [2]) was “binds” throughout.

B10: GST-Par-3 PDZ2-3 (domain or fragment, Drosophila, UniProt O96782 444-741, looked up)
chain: QIMLKKGPNGLGFSVTTRDNPAGAHCPIYIKNILPRGAAIEDGRLKPGDRLLEVDGTPMTGKTQTDVVAILRGMPAGATVRIVVSRQQELAEQADQPAEKSAGVAVAPSVAPPAVPAAAAPAPPIPVQKSSSARSLFTHQQQSQLNESQHFIDAGSESAASNDSLPPSSNSWHSREELTLHIPVHDTEKAGLGVSVKGKTCSNLNASGSSASSGSNGLMKHDGDLGIFVKNVIHGGAASRDGRLRMNDQLLSVNGVSLRGQNNAEAMETLRRAMVNTPGKHPGTITLLVGRKILRSAS
notes: Par-3 (Bazooka), Drosophila, residues 444-741; From pGEX
B10: the binding result (with aPKC KD-PBM [1]; in assay [2]) was “binds” each time.
